US20040176301A1
Square brackets hold non-standard residues; d marks the D form. Phe(3-F) = N[C@@H](Cc1cccc(F)c1)C(=O)O; Phe(4-F) = N[C@@H](Cc1ccc(F)cc1)C(=O)O; Tic = O=C(O)[C@@H]1Cc2ccccc2CN1; Cha = N[C@@H](CC1CCCCC1)C(=O)O; Phe(ol) = N[C@H](CO)Cc1ccccc1; Phg = N[C@H](C(=O)O)c1ccccc1; Nle = CCCC[C@H](N)C(=O)O; Nva = CCC[C@H](N)C(=O)O; Abu = CC[C@H](N)C(=O)O

biological target: Cyclin A (UniProt P20248); experiment: cyclin A binding assay, IC50 (immobilised ligand not given); details: not given

Substance	IC50 [µM]
Ac-Arg-Arg-Leu-Asn-Phe-NH2 (peptide)	8.15

biological target: Cyclin A (UniProt P20248); experiment: competitive ELISA: cyclin A binding to immobilised biotinyl-Ahx-HAKRRLIF-NH2; details: not given

Substance	Relative activity, Cyclin A Binding (relative to HAKRRLIF-NH2)
H-Hse-Ala-Lys-Arg-Arg-Leu-Ile Phe-NH2 (peptide)	2
H-Thi-Ala-Lys-Arg-Arg-Leu-Ile Phe-NH2 (peptide)	0.2
H-FAKRRLIF-NH2	1
H-Dab-Ala-Lys-Arg-Arg-Leu-Ile Phe-NH2 (peptide)	0.4
H-Pya-Ala-Lys-Arg-Arg-Leu-Ile Phe-NH2 (peptide)	0.2
H-AAKRRLIF-NH2	2.5

biological target: Cyclin D1 (UniProt P24385); experiment: competitive ELISA: cyclin D1 binding to immobilised biotinyl-Ahx-p21(149-159); details: not given
Sequence (P24385 whole entry): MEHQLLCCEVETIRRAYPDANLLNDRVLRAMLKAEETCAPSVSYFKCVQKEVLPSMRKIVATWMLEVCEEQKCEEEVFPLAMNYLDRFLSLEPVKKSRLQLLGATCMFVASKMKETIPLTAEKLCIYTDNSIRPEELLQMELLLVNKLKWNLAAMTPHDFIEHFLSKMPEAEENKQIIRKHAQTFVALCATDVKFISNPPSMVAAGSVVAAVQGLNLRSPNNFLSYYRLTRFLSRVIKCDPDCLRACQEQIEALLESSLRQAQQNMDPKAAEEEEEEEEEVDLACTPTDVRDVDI

Substance	IC50 [µM]
P21 N-terminus peptide KAURRLFG-NH2	134
P27 peptide H-Ser-Ala-Abu-Arg-Asn-Leu-Phe-Gly-NH2	> 200
P21 N-terminus-LIF hybrid KAURRLIF-NH2 (peptide)	20

biological target: Cyclin A (UniProt P20248); experiment: competitive cyclin A binding ELISA; competitor: immobilised biotinyl-Ahx-HAKRRLIF-NH2; at 100 µM test peptide; details: not given

Substance	Maximum Inhibition (%)
H-Asn-Leu-Phe-Gly-NH2 (peptide)	80
H-Arg-Leu-Ile-Phe-NH2 (peptide)	50

biological target: Cyclin A (UniProt P20248); experiment: competitive cyclin A binding ELISA; competitor: immobilised biotinyl-Ahx-His-Ala-Lys-Arg-Arg-Leu-Ile-Phe-NH2 (SEQ ID No. 186); details: scale: relative to H-His-Ala-Lys-Arg-Arg-Leu-Ile-Phe-NH2

Substance	Relative activity, Cyclin A Binding
H-HAKRRIIF-NH2	0.2
H-HA[Nle]RRLIF-NH2	0.2
H-His-Bug-Lys-Arg-Arg-Leu-Ile-Phe-NH2 (peptide)	1.2
H-HAKRRLI[Cha]-NH2	< 0.1
H-HAKRRLIW-NH2	0.1
H-HAKRRLIL-NH2	< 0.1
H-His-Ser-Lys-Arg-Arg-Leu-Ile-Pheol (peptide)	< 0.1
H-HAKRRFIF-NH2	< 0.1
H-HALRRLIF-NH2	1.4
H-His-Ala-Lys-Arg-Arg-Leu-Ile-Dhp-OH (peptide)	0.2
H-His-Ala-Lys-Cit-Arg-Leu-Ile-Phe-NH2 (peptide)	0.2
H-His-Ala-Lys-Arg-Arg-Leu-Ile-Hof-NH2 (peptide)	< 0.1
H-HAKRRLI[Tic]-NH2	< 0.1
H-His-Ala-Lys-Nle-Arg-Leu-Ile-Phe-NH2 (peptide)	< 0.1
H-His-Ala-Lys-Arg-Sar-Leu-Ile-Phe-NH2 (peptide)	< 0.1
H-HARRRLIF-NH2	1.5
H-HAKRRLI[Phe(3-F)]-NH2	0.8
H-HAKRRL[Nle]F-NH2	0.3
H-His-Ser-Lys-Arg-Arg-Leu-Ile-L-Pse-OH (peptide)	< 0.1
H-HAKRSLIF-NH2	0.2

Substance	Relative activity, Cyclin A Binding
H-HA[Abu]RRLIF-NH2	0.2
H-His-Ala-Lys-Arg-Arg-1Nap-Ile-Phe-NH2 (peptide)	< 0.1
H-HAKRRLVF-NH2	1.5
H-HAKRRLI[Phe(4-F)]-NH2	5
H-HAKRR[Cha]IF-NH2	< 0.1
H-HGKRRLIF-NH2	0.1
H-HFKRRLIF-NH2	0.2
H-H[Nva]KRRLIF-NH2	< 0.1
H-His-Ala-Lys-Arg-Arg-Leu-Ile-D-Pse-OH (peptide)	0.1
H-HAKARLIF-NH2	< 0.1
H-HAKRNLIF-NH2	< 0.1
H-His-Ala-Lys-Arg-Arg-Leu-Ile-1Nap-NH2 (peptide)	< 0.1
H-HAARRLIF-NH2	0.5
H-HIKRRLIF-NH2	0.2
H-HAKRR[Nva]IF-NH2	< 0.1
H-His-Ser-Lys-Arg-Arg-Leu-Ile-D-Pse-OH (peptide)	< 0.1
H-H[Phg]KRRLIF-NH2	< 0.1
H-His-Ala-Lys-Arg-Arg-Leu-Ile-L-Pse-OH (peptide)	0.2
H-His-Ala-Lys-Arg-Arg-Leu-Ile-2Nap-NH2 (peptide)	0.7
H-HAKRRL[Cha]F-NH2	0.5

Substance	Relative activity, Cyclin A Binding
H-HAKRRLF-NH2	< 0.1
H-HAKRRLAF-NH2	0.8
H-HAKRRLIK-NH2	< 0.1
H-HAKRRLI[Phe(ol)]	1
H-HAKRRLFF-NH2	0.4
H-HVKRRLIF-NH2	1.7
H-His-Ala-Lys-Arg-Aib-Leu-Ile-Phe-NH2 (peptide)	< 0.1
H-His-Ala-Lys-Arg-Arg-Leu-1Nap-Phe-NH2 (peptide)	0.5
H-HAKRPLIF-NH2	< 0.1
H-His-Ala-Lys-Hse-Arg-Leu-Ile-Phe-NH2 (peptide)	< 0.1
H-HAKRRLIY-NH2	0.2
H-HAKRRLLF-NH2	0.6
H-HAKQRLIF-NH2	< 0.1
H-HAKKRLIF-NH2	0.1
H-HAKRRL[Nva]F-NH2	0.6
H-HAKRALIF-NH2	< 0.1
H-HAKRR[Nle]IF-NH2	< 0.1
H-HAKRRVIF-NH2	< 0.1
H-H[Abu]KRRLIF-NH2	1.3
